Laboratory results taken from patent US10941182 (Amgen, dated 2021).
Starred links: 1 amine or outer side, 2 acyl side, 3 side chain; linkers in the order of their positions; H or OH if unused. Non-standard residues stand in square brackets, D forms with d. Primed or numbered codes have the meaning given here. *: point of attachment. AC4Abu = α-carboxy-4-aminobutyric acid, O=C(C(CCN[*:1])C(=O)[*:3])[*:2]; dBip = N[C@H](Cc1ccc(-c2ccccc2)cc1)C(=O)O; Oic = O=C(O)[C@@H]1C[C@@H]2CCCC[C@@H]2N1; Phe(4-Cl) = N[C@@H](Cc1ccc(Cl)cc1)C(=O)O; dPhe(4-Cl) = N[C@H](Cc1ccc(Cl)cc1)C(=O)O; Phe(4-I) = N[C@@H](Cc1ccc(I)cc1)C(=O)O; γGlu = O=C(O)[C@H](CCC(=O)[*:2])N[*:1]; HOOC(CH2)8CO = O=C(O)CCCCCCCCC(=O)*; d(β3hF) = N[C@@H](CC(=O)O)Cc1ccccc1; NMeR = CN[C@@H](CCCNC(=N)N)C(=O)O; Palmitoyl = CCCCCCCCCCCCCCCC(=O)*; Tridecanoyl = CCCCCCCCCCCCC(=O)*; hArg = N=C(N)NCCCC[C@H](N)C(=O)O; Cha = N[C@@H](CC1CCCCC1)C(=O)O; NMeL = CN[C@@H](CC(C)C)C(=O)O; αMeL = CC(C)C[C@](C)(N)C(=O)O; AC4Abu″ = not defined here; β3hP = O=C(O)C[C@@H]1CCCN1; Nle = CCCC[C@H](N)C(=O)O; Dap = NC[C@H](N)C(=O)O; AEEA = NCCOCCOCC(=O)O; Aib = CC(C)(N)C(=O)O

B1: Apelin polypeptide SEQ ID NO: 380 (peptide)
peptide: Tridecanoyl-[γGlu][AEEA][AEEA]QRP[NMeR][Cha]SHKG[Oic][Nle]P[d(β3hF)]-OH
SMILES: CCCCCCCCCCCCC(=O)N[C@@H](CCC(=O)NCCOCCOCC(=O)NCCOCCOCC(=O)N[C@@H](CCC(N)=O)C(=O)N[C@@H](CCCNC(=N)N)C(=O)N1CCC[C@H]1C(=O)N(C)[C@@H](CCCNC(=N)N)C(=O)N[C@@H](CC1CCCCC1)C(=O)N[C@@H](CO)C(=O)N[C@@H](Cc1c[nH]cn1)C(=O)N[C@@H](CCCCN)C(=O)NCC(=O)N1[C@H](C(=O)N[C@@H](CCCC)C(=O)N2CCC[C@H]2C(=O)N[C@@H](CC(=O)O)Cc2ccccc2)C[C@@H]2CCCC[C@@H]21)C(=O)O
B2: Apelin polypeptide SEQ ID NO: 381 (peptide)
peptide: Tridecanoyl-[γGlu][AEEA][AEEA]QRP[NMeR][Cha]SHKG[Oic][Nle]P[dPhe(4-Cl)]-OH
SMILES: CCCCCCCCCCCCC(=O)N[C@@H](CCC(=O)NCCOCCOCC(=O)NCCOCCOCC(=O)N[C@@H](CCC(N)=O)C(=O)N[C@@H](CCCNC(=N)N)C(=O)N1CCC[C@H]1C(=O)N(C)[C@@H](CCCNC(=N)N)C(=O)N[C@@H](CC1CCCCC1)C(=O)N[C@@H](CO)C(=O)N[C@@H](Cc1c[nH]cn1)C(=O)N[C@@H](CCCCN)C(=O)NCC(=O)N1[C@H](C(=O)N[C@@H](CCCC)C(=O)N2CCC[C@H]2C(=O)N[C@H](Cc2ccc(Cl)cc2)C(=O)O)C[C@@H]2CCCC[C@@H]21)C(=O)O
B3: Apelin polypeptide SEQ ID NO: 390 (peptide)
peptide: Tridecanoyl-[γGlu][AEEA][AEEA]QRP[NMeR][Cha]SHKG[Oic][Nle]P[Phe(4-Cl)]-OH
SMILES: CCCCCCCCCCCCC(=O)N[C@@H](CCC(=O)NCCOCCOCC(=O)NCCOCCOCC(=O)N[C@@H](CCC(N)=O)C(=O)N[C@@H](CCCNC(=N)N)C(=O)N1CCC[C@H]1C(=O)N(C)[C@@H](CCCNC(=N)N)C(=O)N[C@@H](CC1CCCCC1)C(=O)N[C@@H](CO)C(=O)N[C@@H](Cc1c[nH]cn1)C(=O)N[C@@H](CCCCN)C(=O)NCC(=O)N1[C@H](C(=O)N[C@@H](CCCC)C(=O)N2CCC[C@H]2C(=O)N[C@@H](Cc2ccc(Cl)cc2)C(=O)O)C[C@@H]2CCCC[C@@H]21)C(=O)O
B4: Apelin polypeptide SEQ ID NO: 409 (peptide)
peptide: Tridecanoyl-[AC4Abu][AEEA][AEEA]QRP[NMeR][Cha]SHKG[Oic][Nle][Phe(4-Cl)]-OH
SMILES: CCCCCCCCCCCCC(=O)NCCC(C(=O)O)C(=O)NCCOCCOCC(=O)NCCOCCOCC(=O)N[C@@H](CCC(N)=O)C(=O)N[C@@H](CCCNC(=N)N)C(=O)N1CCC[C@H]1C(=O)N(C)[C@@H](CCCNC(=N)N)C(=O)N[C@@H](CC1CCCCC1)C(=O)N[C@@H](CO)C(=O)N[C@@H](Cc1c[nH]cn1)C(=O)N[C@@H](CCCCN)C(=O)NCC(=O)N1[C@H](C(=O)N[C@@H](CCCC)C(=O)N[C@@H](Cc2ccc(Cl)cc2)C(=O)O)C[C@@H]2CCCC[C@@H]21
B5: Apelin polypeptide SEQ ID NO: 410 (peptide)
peptide: Tridecanoyl-[AC4Abu][AEEA][AEEA]QRP[NMeR][Cha]SHKG[Oic][Nle][dPhe(4-Cl)]-OH
SMILES: CCCCCCCCCCCCC(=O)NCCC(C(=O)O)C(=O)NCCOCCOCC(=O)NCCOCCOCC(=O)N[C@@H](CCC(N)=O)C(=O)N[C@@H](CCCNC(=N)N)C(=O)N1CCC[C@H]1C(=O)N(C)[C@@H](CCCNC(=N)N)C(=O)N[C@@H](CC1CCCCC1)C(=O)N[C@@H](CO)C(=O)N[C@@H](Cc1c[nH]cn1)C(=O)N[C@@H](CCCCN)C(=O)NCC(=O)N1[C@H](C(=O)N[C@@H](CCCC)C(=O)N[C@H](Cc2ccc(Cl)cc2)C(=O)O)C[C@@H]2CCCC[C@@H]21
B6: SEQ ID NO: 559 (peptide)
peptide: XXXQRPRLSHKGPXPF
modifications: {hexanoyl}[AC4Abu][Aeea][Aeea]QRP[hArg][aMeLeu]SHKGP[Nle]P[4-Cl-F]{COOH}
B7: SEQ ID NO: 592 (peptide)
peptide: XXXQRPRLSHKGPXPF
modifications: {Myristyl-NH}[AC4Abu][Aeea][Aeea]QRP[NMeArg]LSHKGP[Nle]P[4-Cl-F]{COOH}
B8: SEQ ID NO: 513 (peptide)
peptide: XXXQRPRLSHKGPXPF
modifications: {ODDA}[AC4Abu][Aeea][Aeea]QRP[NMeArg]LSHKGP[Nle]P[4-Cl-F]{COOH}
B9: SEQ ID NO: 630 (peptide)
peptide: Palmitoyl-[AC4Abu″][AEEA][AEEA][dQ]RP[NMeR][αMeL]S[Dap]KG[Oic][Nle][β3hP][Phe(4-Cl)]-OH
modifications: reading uncertain
B10: SEQ ID NO: 593 (peptide)
peptide: XXXQRPRLSHKGPXPF
modifications: {Palm}[AC4Abu][Aeea][Aeea]QRP[NMeArg]LSHKGP[Nle]P[4-Cl-F]{COOH}
B11: SEQ ID NO: 291 (peptide)
peptide: {HOOC(CH2)8CO}-[γGlu][AEEA][AEEA][hArg][dR]Q[hArg]P[dR][NMeL]SHKG[Oic][Phe(4-I)]P[dBip]-OH
SMILES: CC(C)C[C@@H](C(=O)N[C@@H](CO)C(=O)N[C@@H](Cc1c[nH]cn1)C(=O)N[C@@H](CCCCN)C(=O)NCC(=O)N1[C@H](C(=O)N[C@@H](Cc2ccc(I)cc2)C(=O)N2CCC[C@H]2C(=O)N[C@H](Cc2ccc(-c3ccccc3)cc2)C(=O)O)C[C@@H]2CCCC[C@@H]21)N(C)C(=O)[C@@H](CCCNC(=N)N)NC(=O)[C@@H]1CCCN1C(=O)[C@H](CCCCNC(=N)N)NC(=O)[C@H](CCC(N)=O)NC(=O)[C@@H](CCCNC(=N)N)NC(=O)[C@H](CCCCNC(=N)N)NC(=O)COCCOCCNC(=O)COCCOCCNC(=O)CC[C@H](NC(=O)CCCCCCCCC(=O)O)C(=O)O
B12: SEQ ID NO: 289 (peptide)
peptide: {HOOC(CH2)8CO}-[γGlu][AEEA][AEEA][hArg][dR]Q[hArg]P[dR][NMeL]SHKG[Oic][Phe(4-I)]P[dBip]-OH
SMILES: CC(C)C[C@@H](C(=O)N[C@@H](CO)C(=O)N[C@@H](Cc1c[nH]cn1)C(=O)N[C@@H](CCCCN)C(=O)NCC(=O)N1[C@H](C(=O)N[C@@H](Cc2ccc(I)cc2)C(=O)N2CCC[C@H]2C(=O)N[C@H](Cc2ccc(-c3ccccc3)cc2)C(=O)O)C[C@@H]2CCCC[C@@H]21)N(C)C(=O)[C@@H](CCCNC(=N)N)NC(=O)[C@@H]1CCCN1C(=O)[C@H](CCCCNC(=N)N)NC(=O)[C@H](CCC(N)=O)NC(=O)[C@@H](CCCNC(=N)N)NC(=O)[C@H](CCCCNC(=N)N)NC(=O)COCCOCCNC(=O)COCCOCCNC(=O)CC[C@H](NC(=O)CCCCCCCCC(=O)O)C(=O)O
B13: SEQ ID NO: 594 (peptide)
peptide: XXXQRPRLSHKGPXPF
modifications: {St}[AC4Abu][Aeea][Aeea]QRP[NMeArg]LSHKGP[Nle]P[4-Cl-F]{COOH}
B14: SEQ ID NO: 508 (peptide)
peptide: XXXQRPRLSHKGPXPF
modifications: {Subericacid}[AC4Abu][Aeea][Aeea]QRP[NMeArg]LSHKGP[Nle]P[4-Cl-F]{COOH}
B15: SEQ ID NO: 497 (peptide)
peptide: XXXQRPRLSHKGPXPF
modifications: {Succinicacid}[AC4Abu][Aeea][Aeea]QRP[NMeArg]LSHKGP[Nle]P[4-Cl-F]{COOH}
B16: SEQ ID NO: 463 (peptide)
peptide: XXXQRPRLSHKGPXPF
modifications: {TDA}[AC4Abu][Aeea][Aeea][BhGln]RP[NMeArg]LSHKGP[Nle]P[4-Cl-F]{COOH}
B17: SEQ ID NO: 309 (peptide)
peptide: Tridecanoyl-[AC4Abu″][AEEA][AEEA][hArg][hArg]Q[hArg]P[NMeR][Cha]SHKG[Oic][Nle]P[Phe(4-Cl)]-OH
modifications: reading uncertain
B18: Apelin polypeptide SEQ ID NO: 382 (peptide)
peptide: Tridecanoyl-[AC4Abu″][AEEA][AEEA]QRP[NMeR][Cha]SHKG[Oic][Nle][Aib][Phe(4-Cl)]-OH
modifications: reading uncertain
B19: Apelin polypeptide SEQ ID NO: 540 (peptide)
peptide: Tridecanoyl-[γGlu][AEEA][AEEA][dQ]RP[NMeR][Cha]SHKG[Oic][Nle][Aib][Phe(4-Cl)]-OH
B20: Apelin polypeptide SEQ ID NO: 466 (peptide)
peptide: Tridecanoyl-[AC4Abu″][AEEA][AEEA]QRP[NMeR]LSH[Nle]GP[Nle]P[Phe(4-Cl)]-OH
modifications: reading uncertain
B21: Apelin polypeptide SEQ ID NO: 383 (peptide)
peptide: XXXQRPRLSHKGPXPF
modifications: {TDA}[AC4Abu][Aeea][Aeea]Q[hArg]P[NMeArg][BLeu]SHKGP[Nle]P[4-Cl-F]{COOH}
B22: Apelin polypeptide SEQ ID NO: 482 (peptide)
peptide: XXXQRPRLSHKGPXPF
modifications: {TDA}[AC4Abu][Aeea][Aeea]QR[aMePro][hArg][aMeLeu]SHKGP[Nle]P[4-Cl-F]{COOH}
B23: Apelin polypeptide SEQ ID NO: 441 (peptide)
peptide: Tridecanoyl-[AC4Abu″][AEEA][AEEA]QR[β3hP][NMeR][Cha]SHKG[Oic][Nle]P[Phe(4-Cl)]-OH
modifications: reading uncertain

Target: T1, rat APJ receptor (rat, UniProt Q9JHG3 1-377)
T1 sequence (looked up): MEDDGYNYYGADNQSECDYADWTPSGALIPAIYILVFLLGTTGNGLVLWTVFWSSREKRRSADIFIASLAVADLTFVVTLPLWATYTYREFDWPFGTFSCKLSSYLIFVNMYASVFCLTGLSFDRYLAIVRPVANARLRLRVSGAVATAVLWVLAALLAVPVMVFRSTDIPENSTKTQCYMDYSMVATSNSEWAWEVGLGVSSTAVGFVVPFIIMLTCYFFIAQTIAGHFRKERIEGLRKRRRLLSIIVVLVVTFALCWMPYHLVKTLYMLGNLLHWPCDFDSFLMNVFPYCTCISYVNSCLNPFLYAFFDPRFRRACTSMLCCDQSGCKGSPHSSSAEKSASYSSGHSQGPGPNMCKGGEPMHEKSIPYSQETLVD
Assay: cell-based or functional assay

Row | Binder | EC50 Rat APJ Receptor (GTPγS assay)
1 | B1 | 4.77 nM
2 | B2 | 5.42 nM
3 | B3 | 0.57 nM
4 | B4 | 0.511 nM
5 | B5 | 2.68 nM

Target: T2, rat APJ receptor (rat, UniProt Q9JHG3 1-377)
T2 sequence (looked up): T1 sequence (looked up)
Assay: cell-based or functional assay

Row | Binder | EC50 Rat APJ Receptor
6 | B6 | 9.15 nM
7 | B7 | 0.598 nM
8 | B8 | 6.12 nM
9 | B9 | 0.486 nM
10 | B10 | 0.231 nM
11 | B11 | 2.47 nM
12 | B12 | 1.3 nM
13 | B13 | 0.528 nM
14 | B14 | 0.467 nM
15 | B15 | 1.39 nM
16 | B16 | 0.128 nM
17 | B17 | 0.215 nM

Target: T3, human APJ receptor (human, UniProt P35414 1-380)
T3 sequence (looked up): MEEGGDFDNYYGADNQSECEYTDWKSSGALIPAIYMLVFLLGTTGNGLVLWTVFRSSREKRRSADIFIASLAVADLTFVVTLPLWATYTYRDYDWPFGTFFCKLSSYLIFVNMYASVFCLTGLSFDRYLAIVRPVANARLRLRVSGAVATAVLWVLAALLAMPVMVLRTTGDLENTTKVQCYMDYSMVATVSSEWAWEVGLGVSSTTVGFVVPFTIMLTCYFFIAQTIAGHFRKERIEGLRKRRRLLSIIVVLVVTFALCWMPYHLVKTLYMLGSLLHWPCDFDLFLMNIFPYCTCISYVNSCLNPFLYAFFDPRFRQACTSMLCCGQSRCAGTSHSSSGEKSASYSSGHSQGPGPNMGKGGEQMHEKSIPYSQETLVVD
Assay: cell-based or functional assay

Row | Binder | EC50 Human APJ Receptor (GTPγS assay)
18 | B1 | 16.7 nM
19 | B2 | 6.12 nM
20 | B18 | 0.469 nM
21 | B3 | 0.11 nM
22 | B4 | 1 nM
23 | B5 | 2.47 nM
24 | B19 | 0.41 nM
25 | B20 | 0.0461 nM
26 | B21 | 0.535 nM
27 | B22 | 0.0862 nM
28 | B23 | 1.9 nM
